Data reported in PMC11284679, “A designed ankyrin-repeat protein that targets Parkinson’s disease-associated LRRK2” (The Journal of Biological Chemistry, 2024).

Columns and labels:
[1] = molecular target: T1, biotinylated LRRK2^RCKW (LRRK2 residues 1327 to 2527) (UniProt Q5S007 1327-2527, biotin (biotinylated; site not stated)); experiment: SPR; Biacore T200; 850 RU biotinylated LRRK2^RCKW on a streptavidin-coated Series S CM5 chip; DARPin E11 in the mobile phase, 30 μl/min; 20 mM Hepes pH 7.4, 150 mM NaCl, 0.5 mM TCEP, 20 μM GDP, 2.5 mM MgCl2; plateau values fitted to a Langmuir model; settings: both partners purified
T1 construct: Leucine rich repeat kinase 2 (LRRK2), C-terminal catalytic half with ROC GTPase, COR-A, COR-B, kinase and WD40 domains, residues 1327 to 2527; also called biotinylated LRRK2^RCKW protein; source: Sf9 (baculovirus, medium with 0.1 mM biotin), purified (Ni-NTA, TEV, Ni-NTA, S200 gel filtration); not shown: His6, N-terminal, cleaved
T1 sequence (looked up): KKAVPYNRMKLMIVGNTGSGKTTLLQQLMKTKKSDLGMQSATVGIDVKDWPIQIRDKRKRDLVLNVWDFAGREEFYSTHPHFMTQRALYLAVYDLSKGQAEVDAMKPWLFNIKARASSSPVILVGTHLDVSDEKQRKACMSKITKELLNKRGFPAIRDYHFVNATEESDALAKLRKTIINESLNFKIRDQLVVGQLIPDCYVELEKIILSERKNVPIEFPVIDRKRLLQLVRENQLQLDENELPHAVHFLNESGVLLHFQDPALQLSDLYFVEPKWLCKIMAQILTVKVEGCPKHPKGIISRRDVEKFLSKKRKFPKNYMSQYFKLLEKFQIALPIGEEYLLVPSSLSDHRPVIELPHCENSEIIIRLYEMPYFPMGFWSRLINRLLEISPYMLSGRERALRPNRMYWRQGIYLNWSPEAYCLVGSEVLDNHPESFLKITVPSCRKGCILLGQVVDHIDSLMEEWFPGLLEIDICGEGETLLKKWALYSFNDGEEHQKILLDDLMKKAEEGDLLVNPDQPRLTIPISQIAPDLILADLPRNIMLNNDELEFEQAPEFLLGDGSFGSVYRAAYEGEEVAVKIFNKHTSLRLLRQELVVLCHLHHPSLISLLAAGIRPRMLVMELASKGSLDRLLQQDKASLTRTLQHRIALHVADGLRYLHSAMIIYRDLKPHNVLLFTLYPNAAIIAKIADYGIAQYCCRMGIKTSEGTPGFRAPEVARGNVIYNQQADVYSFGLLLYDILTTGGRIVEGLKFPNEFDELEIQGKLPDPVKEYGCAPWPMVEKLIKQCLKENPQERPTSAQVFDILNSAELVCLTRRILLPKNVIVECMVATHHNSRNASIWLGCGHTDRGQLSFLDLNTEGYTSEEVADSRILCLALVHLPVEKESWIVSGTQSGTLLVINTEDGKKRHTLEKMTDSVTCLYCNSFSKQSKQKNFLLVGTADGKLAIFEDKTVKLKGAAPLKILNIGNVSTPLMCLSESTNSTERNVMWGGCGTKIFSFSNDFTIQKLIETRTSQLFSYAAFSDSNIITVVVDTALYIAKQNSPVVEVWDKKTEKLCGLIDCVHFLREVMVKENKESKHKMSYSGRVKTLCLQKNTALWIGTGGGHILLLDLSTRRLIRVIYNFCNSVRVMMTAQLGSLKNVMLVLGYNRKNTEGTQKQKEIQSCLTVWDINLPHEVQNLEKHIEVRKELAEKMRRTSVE

[2] = molecular target: LRRK2^RCKW (purified for cryo-EM from His6-Z-TEV-LRRK2^RCKW); experiment: mass photometry; Refeyn Two MP; LRRK2^RCKW alone or with a 2.5-fold excess of DARPin E11; 20 mM Hepes pH 7.4, 150 mM NaCl, 2.5 mM MgCl2, 5% glycerol, 20 μM GDP, 0.5 mM TCEP
[3] = molecular target: T1, biotinylated LRRK2^RCKW (LRRK2 residues …); experiment: BLI; Octet Red96, 25 °C; biotinylated LRRK2^RCKW on streptavidin biosensors; DARPin E11 15 to 1000 nM; 50 mM Hepes pH 8.0, 150 mM NaCl, 10 mM MgCl2, 5% glycerol, 0.1% BSA, 0.05% Tween 20, 500 μM GDP; Req fitted to a Langmuir model; settings: both partners purified

Kd [1]: 70 nM
koff [1]: ~0.005 s⁻¹
stoichiometry N [2]: 1
Kd [3]: 11 nM
B1: DARPin E11 (designed binder)
chain: MRGSHHHHHHHHGSDLGKKLLEAARAGQDDEVRILMANGADVNATDEAGVTPLHLAADSGHLEIVEVLLKTGADVNAWDHYGFTPLHLAAHVGHLEIVEVLLKAGADVNAQDHAGWTPLHLAALYGHLEIVEVLLKHGADVNAQDMWGETPFDLAIDNGNEDIAEVLQKAAKLNDYKDDDDK
notes: Designed ankyrin-repeat protein selected by ribosome display against LRRK2^RCKW; also called 008-807-2362-H9; 8xHis-DARPin E11-3xFLAG; source: E. coli Rosetta, purified (Ni-NTA, SEC)
